Source: US20230407267A1, “USES OF PATIENT-DERIVED SCAFFOLDS” (Iscaff Pharma AB, priority 2020, published 2023)

Test system: MCF7 cells
Assay: PDS co-culture of MCF7 cells with activated T-lymphocytes, with or without PD1 blockade: viability of MCF7 cells
Format: cell-based, human
Conditions: for % of viable MCF7 cells after 48 hours of co-culture with T-lymphocytes: MCF7 + TA+ pre-incubated with Pembr 100 μg/mL 30 min, relative to only-MCF7 control, average ± SD of 3 technical replicates
Description: FIG. 25. PD1 blocking antibody increases the killing capacity of the T-lymphocytes in PDS-dependent manner. T-lymphocytes were activated 20 hours by exposition to CD3/CD28 Dynabeads. […] Then, the co-cultures were incubated for 48 hours. Controls including only MCF7 cells or T-lymphocytes, and 2D cultures were included. (A) Surface expression of PD1 by T-lymphocytes analyzed by FACS. (B) Graph showing the % of viable MCF7 cells after 48 hours of co-culture with T-lymphocytes in 5 different PDSs. Data are relative to their own control with only MCF7 cells and show average±SD of 3 technical replicates.
In addition, in FIG. 13, it is shown how differential expression of PDL1 by MCF7 cells is triggered by different breast cancer PDSs. […] First, T-lymphocytes were activated 20 hours by exposure to CD3/CD28 Dynabeads. […] The blockade of PD1 protein in the T-lymphocytes was confirmed by FACS (FIG. 25A). The T-lymphocytes, with or without PD1 blockade (Pembr) were then added to the PDS cultures, in which the MCF7 cells had been growing for 21 days. The co-cultures were incubated for 48 hours. Control samples included samples with MCF7 cells or T-lymphocytes on their own, and 2D cultures.

Pembrolizumab
% of viable MCF7 cells after 48 hours of co-culture with T-lymphocytes (2D MCF7 culture): 5.5 ± 0.6%
% of viable MCF7 cells after 48 hours of co-culture with T-lymphocytes (PDS13): 31.2 ± 1.7%
killing efficacy of the T-lymphocytes after Pembrolizumab treatment (PDS13 and PDS17, compared to without this treatment): no changes
killing effect of the T-lymphocytes after incubation with Pembrolizumab (PDS14, PDS15 and PDS16, compared to T-lymphocytes without this treatment): higher
% of viable MCF7 cells after 48 hours of co-culture with T-lymphocytes (PDS14): 12.8 ± 2.3%
% of viable MCF7 cells after 48 hours of co-culture with T-lymphocytes (PDS15): 9.5 ± 0.6%
% of viable MCF7 cells after 48 hours of co-culture with T-lymphocytes (PDS16): 9.1 ± 2.5%
% of viable MCF7 cells after 48 hours of co-culture with T-lymphocytes (PDS17): 19.2 ± 4.3%
killing capacity of the T-lymphocytes (in PDS-dependent manner, FIG. 25 legend): increases
